Measurements taken from patent EP4163303A1, “SYNTHETIC MULTI-EPITOPE CHIMERA AS A VACCINE AND TREATMENT FOR LEI[…] MAMMALS” (Universidad Complutense De Madrid, priority 2020, dated 2021).

Experiments:
[1] = system: BMDCs infected with L. infantum; assay: Leishmanicidal activity in L. infantum infected BMDCs co-cultured with splenocytes of immunised animals; format: cell-based, mice; settings: 24 and 72 hours of postinfection incubation; versus Saponin and PBS control groups
Method: (§1) To assess the immunogenicity of the synthetic multi-epitope chimera characterised by SEQ ID NO: 5, inoculations were performed subcutaneously in three groups of mice (n=8/group). The animals of one group, referred to as Seq5, were inoculated with 50 µg of the synthetic chimera characterised by SEQ ID NO: 5 and 25 µg of saponin, as an adjuvant; the animals of another group, saponin control group, were inoculated with 25 µg of saponin; and the PBS control group was inoculated with PBS (buffer in which both the synthetic multi-epitope chimera characterised by SEQ ID NO: 5 and the adjuvant were transported). The inoculation was carried out on the left rear plantar pad on days 60, 45 and 30, with respect to day zero of infection, with a total volume of 50 µl.
The leishmanicidal activity of the chimera characterised by SEQ ID NO: 5 (indicated in the figure as Seq5) was assessed in BMDC. Virgin BMDCs infected with L. infantum were co-cultured with splenocytes from animals previously immunised with the chimera characterised by SEQ ID NO: 5 as indicated in example 3, and with splenocytes from animals previously inoculated with the two controls used according to example 5. The parameters of infected cells and number of intracellular amastigotes were determined by optical microscopy. The data are presented as the mean ± SD. […]

L. infantum = assay: Protection against L. infantum in the murine model of visceral leishmaniasis; format: in vivo, mice; settings: 6 weeks after i.v. infection with 5×10^5 L. infantum promastigotes; versus Saponin and PBS groups
Method: as §1
30 days after the last immunisation carried out as described in example 3, an infection was intravenously performed with 5×10^5 infective L. infantum promastigotes in the 3 groups of animals (which we have named Seq5, Saponin and PBS). 6 weeks after infection, the animals were euthanised and the parasite load in the VL target organs was assessed. The parasite count was carried out by decimal dilutions of spleen and liver macerates, separately, and their subsequent observation under a microscope. […]

[2] = Immunogenicity in immunised mice: cytokine ELISA in BMDC/splenocyte co-cultures and humoral response; format: in vivo
Method: as §1
The displacement of the immune response in the group immunised with the chimera characterised by SEQ ID NO: 5 correlates with increased leishmanicidal activity in target cells infected with Leishmania.
Use was made of virgin bone marrow-derived dendritic cells (BMDC) stimulated with soluble Leishmania antigen (SLA; produced with the supernatants obtained after having lysed cultures of Leishmania promastigotes obtained after sonication and subsequent centrifugation), grey bars; or stimulated with the chimera characterised by SEQ ID NO: 5, white bars; unstimulated BMDC was used as negative control, indicated as N-E with black bars. The BMDCs were co-cultured with spleen cells, splenocytes, of the animals previously immunised as indicated in example 3. Cytokine production (pg/ml) was quantified using the ELISA technique. The data are presented as the mean ± standard deviation (SD). The hash marks indicate statistically significant differences (#, P < 0.05; ##, P <0.001) between the immunised groups and the two control groups (Saponin and PBS). The asterisk indicates statistically significant differences (*, P < 0.05; **, P < 0.001).

[3] = splenocytes of immunised mice co-cultured with BMDC stimulated with the chimera or SLA, ELISA, versus Saponin and PBS controls

B1: … RFQSSAIMALQEITRGCVRRMARRGGVK (peptide)
chain: TAVLEYLTAELLELSRSLKAINAQMSMSHRTMKIVNSYVEGLRFQSSAIMALQEITRGCVRRMARRGGVK
modifications: Multi-epitopic chimera consisting of SEQ ID NO: 1, 2, 3 and 4 from Leishmania infantum
- number of intracellular amastigotes detected per cell (No./BMDC) [1]: lower number
- percentage of infected target cells (% BMDC) [1]: notable reduction
- parasite load in the liver (H) (L. infantum): lower parasite load
- parasite load in the spleen (B) (L. infantum): lower parasite load
- specific humoral response against the synthetic multi-epitope chimera (isotype) ([2]; mice immunised s.c. with 50 µg chimera and 25 µg saponin): redirection of the specific humoral response against the synthetic multi-epitope chimera to the IgG2a isotype
- immune response profile ([2]; mice immunised s.c. with 50 µg chimera and 25 µg saponin, versus Saponin and PBS controls): protective Th1 cell response profile
- production of IFN-γ [2, 3]: greater amount
- production of IL-12 [2, 3]: greater amount
